# Source: PMC13403136
# B1: AsCas12a ΨDNA + RNA target (EMSA, FAM ΨDNA) (DNA:RNA)
# DNA: AGCACCCAGTCCGCCCTGAGTAGATGTGAATCATCTTTAAT
# RNA: CUCAGGGCGGACUGGGUGCU
# B2: AsCas12a ΨDNA + RNA target (EMSA) (DNA:RNA)
# DNA: B1 DNA
# RNA: CUCAGGGCGGACUGGGUGCU
# How the values were obtained:
# AsCas12a [1] = biological target: T1, AsCas12a (UniProt U2UMQ6 1-1307); experiment: BLI
# AsCas12a [2] = biological target: T1, AsCas12a; experiment: EMSA
Binder,Kd (AsCas12a [1]) [nM],binding result (AsCas12a [2])
AGCACCCAGTCCGCCCTGAGTAGATGTGAATCATCTTTAAT (ssDNA) [AsCas12a GFP ΨDNA w/ biotin],24.5,–
B1,–,binds
B2,–,binds
